Measured values published in patent US20260055368A1 (KIROMIC BIOPHARMA, published 2026).

Legend:
[1] = biological target: Mesothelin isoform 2 (IsoMSLN) (Homo sapiens (Human)) (UniProt Q13421); experiment: flow cytometry on Lenti-X 293T cells transiently expressing MSLN isoform 2 (EGFP-gated)
[2] = biological target: MSLN isoform 1 (Mesothelin canonical polypeptide) (Homo sapiens (Human)) (UniProt Q13421); experiment: flow cytometry on Lenti-X 293T cells transiently expressing MSLN isoform 1 (EGFP-gated)
Chain of MSLN isoform 1 (Mesothelin canonical polypeptide) (Homo sapiens (Human)) (Q13421 other isoform, or with tags, fused parts or gaps limits assumed): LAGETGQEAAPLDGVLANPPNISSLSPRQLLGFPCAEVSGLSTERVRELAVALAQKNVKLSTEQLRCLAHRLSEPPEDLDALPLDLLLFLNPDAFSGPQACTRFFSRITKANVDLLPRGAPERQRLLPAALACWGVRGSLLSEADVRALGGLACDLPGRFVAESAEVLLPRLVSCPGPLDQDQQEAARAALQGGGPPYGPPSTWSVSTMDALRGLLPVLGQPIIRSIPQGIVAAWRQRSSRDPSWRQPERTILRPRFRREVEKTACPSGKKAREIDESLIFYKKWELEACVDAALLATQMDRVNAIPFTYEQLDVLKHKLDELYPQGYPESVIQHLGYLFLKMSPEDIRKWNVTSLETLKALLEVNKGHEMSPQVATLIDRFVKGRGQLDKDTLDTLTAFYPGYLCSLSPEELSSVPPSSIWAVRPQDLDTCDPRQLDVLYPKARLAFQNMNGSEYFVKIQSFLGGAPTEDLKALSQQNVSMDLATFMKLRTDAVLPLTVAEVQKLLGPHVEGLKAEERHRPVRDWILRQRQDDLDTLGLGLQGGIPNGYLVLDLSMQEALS

[3] = biological target: T1, Mesothelin isoform 2 (IsoMSLN) (Homo sapiens (Human), UniProt Q13421 37-598); experiment: flow cytometry on Lenti-X 293T cells transiently expressing MSLN isoform 2 (EGFP-gated)
T1 construct: It was transiently expressed in Lenti-X 293T cells and is endogenous on NCI H226 cells; also called MSLN isoform 2; IsoMSLN2
T1 sequence (Q13421 37-606 limits assumed, form in doubt): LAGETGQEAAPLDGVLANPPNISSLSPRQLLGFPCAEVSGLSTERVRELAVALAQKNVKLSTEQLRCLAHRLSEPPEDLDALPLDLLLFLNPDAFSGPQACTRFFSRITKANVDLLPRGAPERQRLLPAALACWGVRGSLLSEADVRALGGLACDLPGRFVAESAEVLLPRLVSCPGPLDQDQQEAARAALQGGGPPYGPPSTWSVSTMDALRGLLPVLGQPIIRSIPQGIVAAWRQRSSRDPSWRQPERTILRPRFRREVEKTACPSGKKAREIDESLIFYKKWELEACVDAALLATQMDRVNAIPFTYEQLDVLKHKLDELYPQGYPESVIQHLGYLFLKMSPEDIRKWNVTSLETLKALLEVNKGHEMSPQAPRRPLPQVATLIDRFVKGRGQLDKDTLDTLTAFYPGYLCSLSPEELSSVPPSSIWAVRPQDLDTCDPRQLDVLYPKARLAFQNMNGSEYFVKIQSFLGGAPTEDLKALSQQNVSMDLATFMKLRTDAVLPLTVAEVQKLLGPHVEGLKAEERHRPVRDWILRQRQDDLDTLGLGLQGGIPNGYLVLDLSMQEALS
Source text: (§1) FIGS. 13A-13C show detection of cell surface expression of MSLN isoform 1 and 2 on the tumor cell surface by anti-isoMSLN-specific antibodies. FIG. 13A: the binding curve of different MSLN antibody clones in MSLN isoform 1 or isoform 2 overexpressing 293T cells. MSLN isoform 1 or 2 were transiently expressed in Lenti-X 293T cells; 48 hrs after transfection the cells were harvested and stained for different anti-MSLN antibody or mIgG1 isotype control (with different antibody concentration). MSLN-expressing cells were gated based on EGFP expression. The antibody binding MFI is plot along with the antibody concentration. FIG. 13B: flow cytometry staining of NCI H226 and Hela tumor cell lines with different anti-MSLN antibody clones. FIG. 13C: binding curve of increasing concentration of anti-IsoMSLN antibody clones to NCI H226 cells. The positive percentage of MSLN is plotted versus the antibody concentration.
(§2) Cell transfection and flow cytometry. […] 3 days after transfection, the transfected cells were harvested, counted, and wash once with FACS buffer, and resuspended in 100 μl FACS buffer containing […] human FcR blocker (BD Bioscience) per 0.1 million cells for 10 min, 4° C. […] Samples were acquired with NovoCyte 3000 and analyzed by NovoExpress (ACEA Biosciences Inc).

[4] = biological target: MSLN isoform 1 (Mesothelin canonical polypeptide) (Homo sapiens (Human), UniProt Q13421 37-598); experiment: flow cytometry on Lenti-X 293T cells transiently expressing MSLN isoform 1
Chain of MSLN isoform 1 (Mesothelin canonical polypeptide) (Q13421 other isoform, or with tags, fused parts or gaps limits assumed): as the sequence (Q13421 other isoform, or with tags, fused parts or gaps limits assumed) above
Source text: as §1, §2

Chain of Mesothelin isoform 2 (IsoMSLN) (Homo sapiens (Human)) (Q13421 37-606 limits assumed, form in doubt): as the sequence (Q13421 37-606 limits assumed, form in doubt) above

## Anti-MSLN mAb clone K1 (antibody)
[1]
  EC50: 0.106 µg/mL
[2]
  EC50: 0.152 µg/mL

B1: 1B6 monoclonal antibody (Binding Molecule A) (antibody, V domains shown)
VH: EVKLVESGGGLVKPGGSLKLSCEASGFTFSRYAMSWVRHTPEKRLAWVASITFGGDPYYPDGLKGRFTISRDNTRNILYLQMNSLRSEDTAMYYCVRHESWFAYWGQGTLVTVSA
VL: DVLMTQTPLSLPVSLGEQVSISCRSSQTIVHTDGNIYLEWYLQNPGQSPRLLIYKISNRFSGVPDRFSGSGSGTDFTLKISRVEAEDLGIYYCFQASHVPYTFGGGTKLEIK
notes: also called 1B6 antibody; 1B6 clone
[3]
  EC50: 0.073 µg/mL
[4]
  binding result: no binding
